From paper PMC7367873, “Dissecting the sequence determinants for dephosphorylation by the catalytic subunits of phosphatases PP1 and PP2A” (Nature Communications, 2020)

Key:
[1] = tested on: GFP-14-3-3β and its binding proteins; assay: GFP-14-3-3β co-IP with LC-MS/MS label-free quantification, untreated versus PP1c-treated; design: species or system human; conditions: GFP-14-3-3β co-IP LC-MS/MS; PP1 vs untreated; student's t-test; label-free quantification, 3 replicates each
GFP-14-3-3β = GFP-14-3-3β co-IP with LC-MS/MS, untreated GFP-14-3-3β versus GFP control (14-3-3 interactome); type: binding, human; conditions: GFP-14-3-3β co-IP LC-MS/MS; untreated vs GFP; student's t-test; label-free quantification, 3 replicates each

Molecule | Difference (log2), PP1 vs untreated [1] [log2] | Difference (log2), untreated vs GFP (GFP-14-3-3β) [log2]
COBL (protein, UniProt O75128 1-1261, looked up) Protein cordon-bleu: MDAPRASAAKPPTGRKMKARAPPPPGKAATLHVHSDQKPPHDGALGSQQNLVRMKEALRASTMDVTVVLPSGLEKRSVLNGSHAMMDLLVELCLQNHLNPSHHALEIRSSETQQPLSFKPNTLIGTLNVHTVFLKEKVPEEKVKPGPPKVPEKSVRLVVNYLRTQKAVVRVSPEVPLQNILPVICAKCEVSPEHVVLLRDNIAGEELELSKSLNELGIKELYAWDNRRETFRKSSLGNDETDKEKKKFLGFFKVNKRSNSKGCLTTPNSPSMHSRSLTLGPSLSLGSISGVSVKSEMKKRRAPPPPGSGPPVQDKASEKVSLGSQIDLQKKKRRAPAPPPPQPPPPSPLIPNRTEDKEENRKSTMVSLPLGSGSHCSPDGAPQVLSEAEETVSVGSCFASEDTTEDSGVMSSPSDIVSLDSQQDSMKYKDKWATDQEDCSDQDLAGTPDLGPQKSPLWEKNGSENSHLRTEKAVTASNDEEDLLIAGEFRKTLAELDEDLEEMEDSYETDTSSLTSSIHGASNHCPQDAMIPHGDTDAIPVTFIGEVSDDPVDSGLFSNRNNNAGSFDSEGVASRRDSLAPLQAEHSQPHEKAREEVPALHPASHDVGKGIRVALSNISKDGNLMETAPRVTSFASNLHTDNLNAKVKDKVYGCADGERTQATERVNSQPVNEKDSNDKNAALAPTSWHQRGQNPGKSYRLKHGLTTYKIIPPKSEMRCYDRDVSLSTGAIKIDELGNLVSPHATGIRIISLSSSVPEAESQPIGKVREFWRCNSVEKHLGRPSESSARGPPSTPVPTQTQNPESRLQADPKPISPQQKSAHHEGRNPLGEGRNQPPTMGMGHVRVPAAHTTEVTFLKPQRRTSSQYVASAIAKRIGAPKVHADVVRPHGYAEKGYAGKAPVLAAPPVTVKDDRTSSPHSETQGWKDGAQWPCVTPPNNHGEDLAVGAPPRGEVIGPHRKLSTQDRPAAIHRSSCFSLVQSSQRDRVSVGQSCGFSGKQSTSSQEASSASEPRRAPDGTDPPPPHTSDTQACSRELVNGSVRAPGHGEPSHPPGGSGTESHILLEREEKPSVFSTDGNETDSIWPPSIFGPKKKFKPVVQRPVPKDTSLHSALMEAIHSAGGKDRLRKTAEHTGEGRPAKLSYTEAEGERSALLAAIRGHSGTCSLRKVASSASEELQSFRDAALSAQGSESPLLEDLGLLSPPAIPPPPPPPSQALSAPRTASRFSTGTLSNTADARQALMDAIRSGTGAARLRKVPLLV | -0.2795 | -0.6052
HNRNPR (protein, UniProt O43390 2-633, looked up) Heterogeneous nuclear …: ANQVNGNAVQLKEEEEPMDTSSVTHTEHYKTLIEAGLPQKVAERLDEIFQTGLVAYVDLDERAIDALREFNEEGALSVLQQFKESDLSHVQNKSAFLCGVMKTYRQREKQGSKVQESTKGPDEAKIKALLERTGYTLDVTTGQRKYGGPPPDSVYSGVQPGIGTEVFVGKIPRDLYEDELVPLFEKAGPIWDLRLMMDPLSGQNRGYAFITFCGKEAAQEAVKLCDSYEIRPGKHLGVCISVANNRLFVGSIPKNKTKENILEEFSKVTEGLVDVILYHQPDDKKKNRGFCFLEYEDHKSAAQARRRLMSGKVKVWGNVVTVEWADPVEEPDPEVMAKVKVLFVRNLATTVTEEILEKSFSEFGKLERVKKLKDYAFVHFEDRGAAVKAMDEMNGKEIEGEEIEIVLAKPPDKKRKERQAARQASRSTAYEDYYYHPPPRMPPPIRGRGRGGGRGGYGYPPDYYGYEDYYDDYYGYDYHDYRGGYEDPYYGYDDGYAVRGRGGGRGGRGAPPPPRGRGAPPPRGRAGYSQRGAPLGPPRGSRGGRGGPAQQQRGRGSRGSRGNRGGNVGGKRKADGYNQPDSKRRQTNNQQNWGSQPIAQQPLQQGGDYSGNYGYNNDNQEFYQDTYGQQWK | -0.2799 | 0.8033

Further lines, with some results ahead:

Difference (log2), PP1 vs untreated [1] [log2] | Molecule | Difference (log2), untreated vs GFP (GFP-14-3-3β) [log2]
-0.251 | XPOT (protein, UniProt O43592 1-962, looked up) Exportin-T: MDEQALLGLNPNADSDFRQRALAYFEQLKISPDAWQVCAEALAQRTYSDDHVKFFCFQVLEHQVKYKYSELTTVQQQLIRETLISWLQAQMLNPQPEKTFIRNKAAQVFALLFVTEYLTKWPKFFFDILSVVDLNPRGVDLYLRILMAIDSELVDRDVVHTSEEARRNTLIKDTMREQCIPNLVESWYQILQNYQFTNSEVTCQCLEVVGAYVSWIDLSLIANDRFINMLLGHMSIEVLREEACDCLFEVVNKGMDPVDKMKLVESLCQVLQSAGFFSIDQEEDVDFLARFSKLVNGMGQSLIVSWSKLIKNGDIKNAQEALQAIETKVALMLQLLIHEDDDISSNIIGFCYDYLHILKQLTVLSDQQKANVEAIMLAVMKKLTYDEEYNFENEGEDEAMFVEYRKQLKLLLDRLAQVSPELLLASVRRVFSSTLQNWQTTRFMEVEVAIRLLYMLAEALPVSHGAHFSGDVSKASALQDMMRTLVTSGVSSYQHTSVTLEFFETVVRYEKFFTVEPQHIPCVLMAFLDHRGLRHSSAKVRSRTAYLFSRFVKSLNKQMNPFIEDILNRIQDLLELSPPENGHQSLLSSDDQLFIYETAGVLIVNSEYPAERKQALMRNLLTPLMEKFKILLEKLMLAQDEERQASLADCLNHAVGFASRTSKAFSNKQTVKQCGCSEVYLDCLQTFLPALSCPLQKDILRSGVRTFLHRMIICLEEEVLPFIPSASEHMLKDCEAKDLQEFIPLINQITAKFKIQVSPFLQQMFMPLLHAIFEVLLRPAEENDQSAALEKQMLRRSYFAFLQTVTGSGMSEVIANQGAENVERVLVTVIQGAVEYPDPIAQKTCFIILSKLVELWGGKDGPVGFADFVYKHIVPACFLAPLKQTFDLADAQTVLALSECAVTLKTIHLKRGPECVQYLQQEYLPSLQVAPEIIQEFCQALQQPDAKVFKNYLKVFFQRAKP | 1.37
-0.2879 | OSBPL3 (protein, UniProt Q9H4L5 1-887, looked up) Oxysterol-binding …: MMSDEKNLGVSQKLVSPSRSTSSCSSKQGSRQDSWEVVEGLRGEMNYTQEPPVQKGFLLKKRKWPLKGWHKRFFYLDKGILKYAKSQTDIEREKLHGCIDVGLSVMSVKKSSKCIDLDTEEHIYHLKVKSEEVFDEWVSKLRHHRMYRQNEIAMFPHEVNHFFSGSTITDSSSGVFDSISSRKRSSISKQNLFQTGSNVSFSCGGETRVPLWLQSSEDMEKCSKDLAHCHAYLVEMSQLLQSMDVLHRTYSAPAINAIQGGSFESPKKEKRSHRRWRSRAIGKDAKGTLQVPKPFSGPVRLHSSNPNLSTLDFGEEKNYSDGSETSSEFSKMQEDLCHIAHKVYFTLRSAFNIMSAEREKLKQLMEQDASSSPSAQVIGLKNALSSALAQNTDLKERLRRIHAESLLLDSPAVAKSGDNLAEENSRDENRALVHQLSNESRLSITDSLSEFFDAQEVLLSPSSSENEISDDDSYVSDISDNLSLDNLSNDLDNERQTLGPVLDSGREAKSRRRTCLPAPCPSSSNISLWNILRNNIGKDLSKVAMPVELNEPLNTLQRLCEELEYSELLDKAAQIPSPLERMVYVAAFAISAYASSYYRAGSKPFNPVLGETYECIREDKGFQFFSEQVSHHPPISACHAESRNFVFWQDVRWKNKFWGKSMEIVPIGTTHVTLPVFGDHFEWNKVTSCIHNILSGQRWIEHYGEIVIKNLHDDSCYCKVNFIKAKYWSTNAHEIEGTVFDRSGKAVHRLFGKWHESIYCGGGSSSACVWRANPMPKGYEQYYSFTQFALELNEMDPSSKSLLPPTDTRFRPDQRFLEEGNLEEAEIQKQRIEQLQRERRRVLEENHVEHQPRFFRKSDDDSWVSNGTYLELRKDLGFSKLDHPVLW | 1.582
